The values that follow come from PMC4546627, “Biophysical Characterization of Essential Phosphorylation at the Flexible C-Terminal Region of C-Raf with 14-3-3ζ Protein” (PLoS ONE, 2015).

The term Kd denotes the constant that tells how readily two partners part at equilibrium.

Assay [1] concerns the target C-Raf pS233 peptide (Homo sapiens) (UniProt P04049). The note with it: cited from earlier work.
In assay [2] the target is C-Raf pS233/pS259 peptide (Homo sapiens) (UniProt P04049). The note with it: cited from earlier work.
The target in assay [3] is C-Raf pS259 peptide (Homo sapiens) (UniProt P04049). The note with it: cited from earlier work.
Assay [4] has as its target T1, human 14-3-3ζ protein (Homo sapiens, UniProt P63104).
T1 construct: hexa-histidine (His6, from pQE30 vector) (N); made in house; host or cells: E. coli M15
T1 sequence (P63104 1-245): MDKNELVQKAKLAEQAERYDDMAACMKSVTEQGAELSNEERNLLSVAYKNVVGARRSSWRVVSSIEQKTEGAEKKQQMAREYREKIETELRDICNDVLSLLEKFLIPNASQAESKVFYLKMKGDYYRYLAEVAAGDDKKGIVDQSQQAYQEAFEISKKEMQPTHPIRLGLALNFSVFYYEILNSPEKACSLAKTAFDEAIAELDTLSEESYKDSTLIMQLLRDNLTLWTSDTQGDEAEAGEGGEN
The assay is described as follows: Isothermal titration calorimetry (ITC) of peptide binding to 14-3-3ζ. An excerpt: Human 14-3-3ζ full length sequence was PCR amplified using pcDNA3 14-3-3ζ as a template with forward primer (5´-[…]-3´) and reverse primer (5´-[…]-3´). The PCR amplified product was digested with BamH1 and Pst1 and cloned into pQE30 vector. This vector contains N-terminal hexa- histidine tag suitable for affinity purification. The cloned fragment was confirmed by automated DNA sequencer, Applied Biosystem 3130×I 96 capillary DNA Analyzer.
E. coli M15 cells were transformed with this construct and grown at 37°C in LB medium containing ampicillin and kanamycin. The cells were grown till 0.6 (O.D.600nm) and the expression of the protein was induced with 0.5 mM IPTG for 3 hours. The cells were harvested and stored at -70°C. The cells were subsequently resuspended in lysis buffer (10 mM NaH2PO4, 100 mM NaCl, pH7.0, 1 mM PMSF (Sigma, St. Louis, MO), 1X Halt Protease inhibitor cocktail (ThermoFisher Scientific, Waltham, MA) and lysed by passing through the French press at 20,000 psi. Cell lysate was centrifuged at 20,000×g for 15 minutes at 4°C. The supernatant was collected and again centrifuged at 100,000×g for 1 hour. Cell homogenate was applied onto TALON affinity resin (Clontech, Mountain View, CA) pre-equilibrated with lysis buffer. Resin was washed with five volumes of lysis buffer containing 20 mM imidazole. Bound protein was eluted with 150 mM imidazole containing lysis buffer. Imidazole was then removed by dialysis; the buffer was exchanged with 10 mM NaH2PO4, 100 mM NaCl, pH 6.1 and the protein was concentrated in sucrose bed. Commercially synthesized and HPLC-purified (> 95%) KH16p and KH16 peptides were purchased from GL Biochem (Shanghai, China) and used as received.
ITC technique was employed to study thermodynamics of KH16p and KH16 peptides interactions with 14-3-3ζ protein with the help of VP-ITC micro-calorimeter in high feedback mode. The peptides were dissolved in the same dialysis buffer of 14-3-3ζ protein (i.e., 10 mM Na2HPO4 buffer containing 100 mM NaCl, pH 6.1). Sample cell with 50 μM 14-3-3ζ protein was titrated against 1 mM peptide in a syringe with 300 rpm stirring speed with an initial delay of 60 sec. The cell temperature was kept at 298 K and 10 μcal/s of reference power as applied to maintain a flat baseline. A total of 17 injections of 1 mM KH16p/KH16 were performed, where the initial injection was of 0.4 μl and the final was 2.0 μl, while the remaining 15 injections were 2.5 μl each. Each injection was over a period of 0.8 sec with a spacing of 150 sec and filter time of 5 sec. An equivalent control experiment to subtract the heat of dilution of the peptides in buffer was performed (i.e., the same concentration of peptide was injected into the buffer solution keeping same experimental parameters). Results obtained were plotted using MicroCal Origin 7.0 software. In order to determine the thermodynamic parameters (i.e., association constant K A and enthalpy of reaction ΔH), the single-site binding model was used. Other thermodynamic parameters such as the free energy of binding (ΔG) and entropy (ΔS) were calculated using Eqs (2) and (3), respectively: ΔG=−RTlnKA (2) ΔG=ΔH−TΔS (3)
(In general: ITC needs no label: the signal is the heat of the interaction.)

In assay [5] the target is T1, human 14-3-3ζ protein. Nature of the assay: STD NMR with 14-3-3ζ. The note with it: 1 mM peptide, 2 μM 14-3-3ζ (500:1), D2O, 10 mM Na2HPO4, 100 mM NaCl, pH 6.1, 288 K. It counts as binding. The procedure:
Saturation transfer difference (STD) NMR experiments were carried out at 288 K using standard STD pulse sequences, with WATERGATE 3-9-19 water suppression method. Briefly, 1 mM of KH16p/KH16 peptide in 10 mM Na2HPO4 buffer (pH 6.1) with 100 mM NaCl was lyophilized and resuspended in an equal volume of D2O, and 2 μM 14-3-3ζ proteins was added to it. A train of 40 selective Gaussian-shaped pulses (49 ms each) with an interval period of 1 ms was used to saturate protein resonance for a total of 2 sec saturation time. During the STD NMR experiment, on- and off-resonance frequencies were set at -1 ppm and 40 ppm, respectively. Subtraction of off-resonance spectrum from the on-resonance spectra to yield signals appearing due to saturation transfer from protein to ligand was achieved using phase cycling. The one-dimensional STD spectra were acquired with 1024 scans with 16 dummy scans using a sweep width of 12 ppm. An exponential line broadening function of 3 Hz was applied to the spectral data before Fourier transformation. Similar STD experiments were performed on the peptide KH16p or KH16 in the absence of 14-3-3ζ protein as a control.

For another assay, the target named is T2, 14-3-3ζ (Homo sapiens, UniProt P63104).
T2 chain: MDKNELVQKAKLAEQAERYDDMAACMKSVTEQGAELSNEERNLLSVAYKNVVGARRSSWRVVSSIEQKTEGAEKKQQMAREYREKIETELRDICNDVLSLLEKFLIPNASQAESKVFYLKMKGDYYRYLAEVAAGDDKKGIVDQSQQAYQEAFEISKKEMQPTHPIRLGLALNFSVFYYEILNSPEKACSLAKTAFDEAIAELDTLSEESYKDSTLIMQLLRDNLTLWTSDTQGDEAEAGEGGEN
The assay is described as follows: 31P NMR.

“Also recorded” adds a separate entry of the source. Where a SMILES comes first, the peptide text is derived from it. Where no end group is shown, it is not given here. [ ]: non-standard residue; d: D form. pS = N[C@@H](COP(=O)(O)O)C(=O)O

Regarding 14-3-3ζ (from UniProt P63104), the equilibrium dissociation constant (Kd) in assay [1] is 171 µM; in assay [2], 0.346 µM; in assay [3] it was 16.7 µM.

Regarding `CC[C@H](C)[C@H](NC(=O)[C@@H](N)CCCCN)C(=O)N[C@@H](CC(N)=O)C(=O)N[C@@H](CCCNC(=N)N)C(=O)N[C@@H](CO)C(=O)N[C@@H](C)C(=O)N[C@@H](COP(=O)(O)O)C(=O)N[C@@H](CCC(=O)O)C(=O)N1CCC[C@H]1C(=O)N[C@@H](CO)C(=O)N[C@@H](CC(C)C)C(=O)N[C@@H](Cc1c[nH]cn1)C(=O)N[C@@H](CCCNC(=N)N)C(=O)N[C@@H](C)C(=O)N[C@@H](C)C(=O)N[C@@H](Cc1c[nH]cn1)C(=O)O` [KH16p] (H-KINRSA[pS]EPSLHRAAH-OH), the Kd on human 14-3-3ζ protein [4] turned out to be 17.3 µM.

Consider “KH16: control peptide KH16 devoid of phosphorylation at S621 (C-Raf 615–630) (KINRSASEPSLHRAAH; UniProt P04049 615-630, looked up, fragment)”, for which the “STD NMR signals with 14-3-3ζ (in words)” value with human 14-3-3ζ protein [5] is “did not show any peaks in both the aromatic and the aliphatic regions”. Further, the “N (stoichiometry)” value with human 14-3-3ζ protein [4] (ITC, 50 μM 14-3-3ζ in cell, 1 mM peptide in syringe, 298 K, 10 mM Na2HPO4, 100 mM NaCl, pH 6.1, single-site binding model) is 1.89 ± 1.45 × 10^4. For the same molecule, in the assay with human 14-3-3ζ protein [4] (ITC, 298 K, pH 6.1), the “T∆S” value is -411.24 kcal/mol; the “binding affinity (in words)” value was “did not show any appreciable binding affinity; also recorded: relatively weak and the corresponding KD value is in the millimolar range”. Besides, in the assay with human 14-3-3ζ protein [4] (ITC, 298 K, pH 6.1, calculated from ΔG=ΔH−TΔS), the “∆S” value is recorded as -1.38 × 10^3 cal mol^-1 deg^-1. Also, in the assay with human 14-3-3ζ protein [4] (ITC, 298 K, pH 6.1, calculated from ΔG=−RTlnKA), the “∆G” value is -1.96 kcal/mol.

KINRSA[pS]EPSLHRAAH [C-Raf KH16p phosphopeptide 615-630] displayed a Kd with 14-3-3ζ of 17.7 µM.
